In publication PMC10998907:

What was measured:
[1] = molecular target: NiV-RBP ectodomain (NiV attachment glycoprotein ectodomain), homotetramer (Nipah virus) (UniProt Q9IH62); test: negative-stain EM
[2] = molecular target: NiV-RBP ectodomain homotetramer (Nipah virus); test: cryo-EM structure

## NiV-RBP ectodomain (NiV attachment glycoprotein ectodomain), homotetramer (from UniProt Q9IH62 1-602) (domain or fragment)
[1]
  stoichiometry N: 4

## NiV-RBP ectodomain homotetramer (domain or fragment)
[2]
  stoichiometry N: 4
